Data on 50 sequences can be found in the domain aggregation screens of Martell et al. (2025).

The data set in a line: soluble fraction after stress (log2 fold change); higher = more stays soluble; pooled small domains, quantitative proteomics. The following applies: stress: 50 degC. In short, it runs like this: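 The measure of aggregation propensity here is the base-two logarithm of the fold change in the soluble amount of each protein after stress. A higher value means more of that protein stays in solution. Stress was applied at 50°C to pooled libraries of small protein domains, read out by high-throughput quantitative proteomics.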
For the sequence “HMENFYGYEIINPEAKKFFITMGVNRYALEQWIKNKSEYGLIIVKSLYPFDPRLKLFLEKNRERIQNLIF”, the “soluble fraction (log2)” value is -0.566.
The figure for “HMENKLIELTLSLDKSERLDKILTQELSHTRSVIQQWLKSGFVSVNGEIVKANYKAKDGDHVTIQIE” is -0.198; for “HMENKTGEVTVREDSALTLRQGPGTNYEKVGQAYRGDRVDVLEEQNGWYKVKTYDGKEAWASSSYISIV” it is 0.454; for “HMENMETSDIVARYSNMPGGIIEAFHEIVDRHGFLSQEAIIEAARGFGISVAEAYGVATFYSMFS” it is -0.336.
In the case of “HMENMRLILASNLRRIREERRLSLNKVSELTGVSKSMLGQIERGESNPTLQTVWKIANGLRVSLTDLTEVP”, the “soluble fraction (log2)” value was -0.0326.
The result for “HMENRILLSEDSLKHLAQDIPIDIIEKLSVLKDQIYHRYDDFNSIVQGLLGGENYLKYKDNILSFVEQ” reads 0.0624; that for “HMENSMDTDWDVSGVDPSQYRLLFSTLGAIAGVKDVGLNPDGLKIIHTPEALPAIKQAFDANNLKLKMRTN”, 0.163; that for “HMENSPLTHREAEVMRLMSEGKSNRAISEHLVISEKTVKNHVSSILQKMSVDDRTQAVLQAIKNGWVD”, 0.23.
The result for “HMENTGFKDKKGNYIFDGDIVKDILGNIMKVEFKHFKWQLIPLNKTAFNMPMVDWLDLETETLNAEIIGN” reads -2.13.
The result for “HMENTIESLLKAKGFNDIIVTVSDKQVDVVVSDKEIADNKRAQIEDVIKRKTGLEASAITITPA” reads 0.0688; that for “HMENVLFVNVLSMTVRELAEMMKIPVNKIIQDSFSKGIMMNPNQRLEYDNFAELAKKYGITVKI”, -0.879; that for “HMENVMLRNFAIQATEAGVIKLLEDQRTFVWGSNNKKFMTVPFDEHPYSAMAAFFKTDEGLEIYKSIEKKF”, -1.71.
For “HMENYQIETFVKFIEESTGEDGVAFEDLFQNFTSRPAVITMFLALLEALRRNSIRIFQKEEFSQILIYPK”, the “soluble fraction (log2)” value is 0.084.
The figure for “HMENYTYKYATSANVNIREEPNTDSTILGKTLLNTEFQVVEDVDGWSKITTEAGYAYIKSEYLSDTE” is -0.188; for “HMEPDEQAVKALIAEIDKLSKEKLTLKHEKKLKELREIYDDFTEEEKKLVTNYDILVKMEKRMEVLKKQEG” it is 0.111.
The figure for “HMEPDEYTVRQAFMKFDVGGEGRVPRDKLKALLETLGLELSAQQVRESEEQLDPEGTGFTSYGDFLMWWN” is -1.12.
The figure for “HMEPEVSNTYEKVLGMHHFSSTRSHQLHDLVRQANALELSLGEIESIAQSAKDGAQVISDIKHWMEPNRQ” is 0.266.
For the sequence “HMEPEWVINTDGSNLNEILAIDEVDSRKTFSNDLQEVYRTFGIEAARQILVQEIDAVIESSGA”, the “soluble fraction (log2)” value is 0.199.
Turning to “HMEPFEQLLDRITSQTGKEPEEVVARMNELITERFDGNIRPEAALVIVAKRDNIQFMDLLDQLKQALL”, the “soluble fraction (log2)” value is -0.516.
“HMEPIAFDNMHNRGIKGTNDWTQYEITLPFSAEAKKIFVAGLLVGKGKAWFDKFEVFLDGKNITDVAQI”: the “soluble fraction (log2)” value came to 0.124.
The figure for “HMEPPPSYSALLKQISSGKVKELQLVPARREVIVTYPDGRSATVAILANDQQILRTAEAAGTPLLVK” is 0.207; for “HMEPQLVKSFDVQTELTYDQFLSKYPESHTLGRLLVQPEPIPFEPYKNIPGITPEKLLALHAKHLEAR” it is 0.0728; for “HMEPQSRTAYRLIEAMIVTHELPPGSRISEASLSAKLGIGRTPIREALQRLSFEGTVKIVPRSGAFVSEI” it is -2.76.
The result for “HMEPREALDGLISERGETYASISRLLGRNSAYIQQFIKRGSPARLDQSDIALLALHFDVPVEMLGGKE” reads -0.42; that for “HMEPTIGTATVTSGSRLNMRSAKSTSASVVTRIPSGATVGVISYASDWSKVTYNGYTGYVSSPYISMNG”, -0.198.
The figure for “HMEPVIELGDRTLPIEITRHRRARRLTLRLAADGSAVRITLPHWARSAEATAFAHARRDWLAAQLAK” is 0.0378; for “HMEPVTETVYAMDTVNIRAAADQTSEKIGSVTVGTALTRTGTDGDWSIIDYNGTTGYVKSEFLSNTAPEV” it is -0.00262.
Regarding “HMEQLIIQEELSGKRLDQLVSLLFPSLTRAHAQKLIKEGAVLVNEKPRKPAYAVMTGELLTVELPEPE”, the “soluble fraction (log2)” value was -0.0616.
The result for “HMEQNHYEVLGVSRDAIPEEIRKAYFEYARKLHPDANPDPGAAEQFMRIQTAYDVLSNPDRRHEYDGLLPP” reads -0.000773.
The result for “HMEQRREEFILLAKELLEKELRKQNLEVHENLKPDVLNDVAKRLGMVSMDDLLAAVGDGKITPGTVVSKIV” reads 0.064.
The figure for “HMEQVLNVAVRRGELIMSSAAEQTVRIYSSAGSMVWQGKVSASDVTVELPSGVYVVNGKKVV” is -1.19.
Turning to “HMEQYFEDEELNDKFLEFLAMRKRVRKPVQTDRGMKMLLTSLHKLSGGDVGLMKQIIDQSLDNEWKKFVA”, the “soluble fraction (log2)” value is -0.673.
The figure for “HMERDIATKHEVNRTVEAYSDIVKTLNLPSHKINLVEISFFNILKRSKPSPRENSILLGLAQKIKLHLEKK” is -0.477.
The result for “HMERLKYSQVVDLFKGEQVKSFVLDESNQLKMELQDGSTVSYKLRSFEQFYLDLSDTVKEQKESGIITDYD” reads -0.746.
The result for “HMERPPHELLSDREYQTMVMIASGRTLTQIAEEMSLSPKTVSVYRARLLEKMKLKNNAELTHYALKHKLV” reads 0.0152; that for “HMERPSLDQVLAHAKALGIAPARFVAYADGRWGTGWRLSPHGRARAWEELDRHRNDPLGYRDKLDVALQSG”, -0.0254; that for “HMESAQLIINVAGKVSNPGVYQLPQGSRVVDAIEAAGKQLKGVDISDINLARVLVDGEQILVGGV”, 0.247.
For the sequence “HMESAVDVFRSILKEKGVTEEEVRQVVAARGKYTLETPIDDYPNEFLYGYVIRYWDQIFDIIQQSREAK”, the “soluble fraction (log2)” value was -0.321.
Turning to “HMESEAKLGVAFNGKTRFDMTFPADADNKTIEEAVLADERAQKYLEGFQVAKVIIVPKRMVNIVLK”, the “soluble fraction (log2)” value is 0.24.
In the case of “HMESEIYKKIEKSRLLELAFTKSQKGDLTGAYDLYYQAFTKYDVIADNQNRYFEDFISLIRRKQQQD”, the “soluble fraction (log2)” value was -0.739.
For “HMESGLPLPRFVSLGADEVNLRTGPGLRYPVAWVFVRKALPVEIVAEFEQWRRVRDFEGAEGWVHKAML”, the “soluble fraction (log2)” value was -0.36.
On to “HMESGSSKINQDILETFTRGKKSLSISDISRLSGHHRHTVARYLDNLVSSGKLEMRQHGQKKKYYLSDIQP”, for which the “soluble fraction (log2)” value is 0.0308.
“HMESILDDFPGLGAVRRAALLEHFGDIDRLRAASAVEITEVDGFGDVLARELHDFLHRPKPDA”: the “soluble fraction (log2)” value was -0.455.
The result for “HMESKKKTYTVKSGDTLVSILKREGVPQELIFKDYLGLFLELNPQISDINKLRVGQEIVLPVPG” reads 0.0119; that for “HMESLGEKIKNIRISNNLKQSELADILHISEKTISSWENNRTTPDLNMIYKISNYFKKSFYYLISDDYI”, -1.02.
Take “HMESMIGSLRGRLLELFGDGEVLIEVGGVGYRVIVTPTTTVRLGDVGGDVFVHVHHHIREADQTLYGF”: the “soluble fraction (log2)” value is -0.234.
The figure for “HMESPSGGHRIALAFDQGTARAVDATYARLTGAGYEGRTKPWDAPWGQRYATVFDPDGNSVDLFAALE” is -0.263.
The figure for “HMESRDRVRQASAAGYRFMSTMAGHEPGFEEASRALFAGDQTAFEARITAWPVDVQTHLKKILAEAFTT” is -0.734; for “HMESRLQAAIALRKAGEHEQSREALKILADEPALRAQALLNIAWSFDNQGHERDAEGYYLAAIE” it is -0.131; for “HMESSKLQASIINYLERRPTQKFTAEELFKGLSLEKASVFNELVKELTSLERSHKVEITADDKFKIARPQ” it is -0.126.
